Measurements: US5821046A, “RNA oligonucleotides that bind HIV tat protein” (RiboTargets Holdings PLC, priority 1990, dated 1998)

Columns and labels:
HIV-1 Tat [1] = biological target: T1, HIV-1 Tat (Human immunodeficiency virus 1, UniProt P04608 P04608:1-86); experiment: filter; UCU bulge indistinguishable from UUU; settings: stem-loop with bulge
HIV-1 Tat [2] = biological target: T1, HIV-1 Tat; experiment: filter; D1/2 76 nM; compensatory mutation restores binding; settings: stem-loop with bulge
HIV-1 Tat [3] = biological target: T1, HIV-1 Tat; experiment: filter; D1/2 66 nM; complex in EMSA; settings: stem-loop with bulge
HIV-1 Tat [4] = biological target: T1, HIV-1 Tat; experiment: filter; D1/2 680 nM; no complex in EMSA; settings: stem-loop, upper stem disrupted
Rev = settings: references 33, 34; read-out: Kd of Rev-RRE complex; cited from earlier work
HIV-1 Tat [5] = biological target: T1, HIV-1 Tat; experiment: filter; no complex in EMSA; settings: stem-loop
HIV-1 Tat [6] = biological target: T1, HIV-1 Tat; experiment: competition; D1/2 vs 10 nM 59-mer probe (59-mer 40 nM); 60 nM vs 29-mer probe; settings: hairpin with U-rich bulge and loop
HIV-1 Tat [7] = biological target: T1, HIV-1 Tat; experiment: competition; D1/2; unmodified 18+15 duplex 65 nM; 59-mer 18 nM; settings: duplex with bulge
HIV-1 Tat [8] = biological target: T1, HIV-1 Tat; experiment: filter; D1/2 420 nM in table (290 nM in text); no complex in EMSA; settings: stem-loop without bulge
HIV-1 Tat [9] = biological target: T1, HIV-1 Tat; experiment: filter; D1/2 160 nM; about 2.5-fold lower affinity; complex in EMSA; settings: stem-loop with 2-nt bulge
HIV-1 Tat [10] = biological target: T1, HIV-1 Tat; experiment: competition; D1/2; 18+15 duplex probe; 59-mer 18 nM; settings: duplex with UUU bulge, no apical loop

B1: HIV-1 TAR RNA (UCU bulge) (ssRNA)
RNA: GGGUCUCUCUGGUUAGACCAGAUCUGAGCCUGGGAGCUCUCUGGCUAACUAGGGAACCC
modifications: [24]
**Q.** With B1 as the molecule, how does the Kd (HIV-1 Tat [1]) read?
**A.** 12 nM

B2: TAR G28 to C28; C37 to G37 (ssRNA)
RNA: GGGUCUCUCUGGUUAGACCAGAUUUGACCCUGGGAGGUCUCUGGCUAACUAGGGAACCC
**Q.** Which Kd (HIV-1 Tat [2]) does the source give for B2 here?
**A.** 24 nM

B3: TAR G to U (loop) (ssRNA)
RNA: GGGUCUCUCUGGUUAGACCAGAUUUGAGCCUUUUAGCUCUCUGGCUAACUAGGGAACCC
**Q.** With B3 as the molecule, how does the Kd (HIV-1 Tat [3]) read?
**A.** 25 nM

B4: TAR G28 to C28 (ssRNA)
RNA: GGGUCUCUCUGGUUAGACCAGAUUUGACCCUGGGAGCUCUCUGGCUAACUAGGGAACCC
**Q.** With B4 as the molecule, how does the Kd (HIV-1 Tat [4]) read?
**A.** > 100 nM

B5: RRE: rev-responsive element, 243-nucleotide long sequence within the env gene (nucleic acid)
chain: CAGUGGGAAUAGGAGCUUUGUUCCUUGGGUUCUUGGGAGCAGCAGGAAGCACUAUGGGCGCAGCGUCAAUGACGCUGACGGUACAGGCCAGACAAUUAUUGUCUGGUAUAGUGCAGCAGCAGAACAAUUUGCUGAGGGCUAUUGAGGCGCAACAGCAUCUGUUGCAACUCAAGUCUGGGGCAUCAAGCAGCUCCAGGCAAGAAUCCUGGCUGUGGAAAGAUACCUAAAGGAUCAACAGCUCCU
**Q.** With B5 as the molecule, how does the Kd (Rev) read?
**A.** 3 nM

B6: Antisense TAR (ssRNA)
RNA: GGGUUCCCUAGUUAGCCAGAGAGCUCCCAGGCUCAAAUCUGGUCUAACCAGAGAGACCC
**Q.** Which Kd (HIV-1 Tat [5]) does the source give for B6 here?
**A.** > 140 nM

B7: 29-mer top part of TAR (ssRNA)
RNA: GCCAGAUUUGAGCCUGGGAGCUCUCUGGC
**Q.** With B7 as the molecule, how does the IC50 (HIV-1 Tat [6]) read?
**A.** 100 nM

B8: 18+15 duplex 4-thioT-25 (dsRNA)
RNA 1: AGCCAGAUUTGAGCAGCU
RNA 2: AGCUGCUCUCUGGCU
modifications: 4-thio-2'-deoxythymidine at U25 (nt 10) [10 (strand 1, 4-thio-2'-deoxythymidine)]
**Q.** With B8 as the molecule, how does the IC50 (HIV-1 Tat [7]) read?
**A.** 12 nM

B9: TAR delta U (bulge) (ssRNA)
RNA: GGGUCUCUCUGGUUAGACCAGAGAGCCUGGGAGCUCUCUGGCUAACUAGGGAACCC
**Q.** With B9 as the molecule, how does the Kd (HIV-1 Tat [8]) read?
**A.** > 70 nM

B10: HIV-2 TAR RNA first stem-loop (ssRNA)
RNA: CUGCGGAGAGGCUGGCAGAUUGAGCCCUGGGAGGUUCUCUCCAGCACUAGCAG
**Q.** For B10, which Kd (HIV-1 Tat [9]) is on record?
**A.** 30 nM

B11: 18-mer + 15-mer TAR duplex (dsRNA)
RNA 1: AGCCAGAUUUGAGCAGCU
RNA 2: AGCUGCUCUCUGGCU
**Q.** With B11 as the molecule, how does the IC50 (HIV-1 Tat [10]) read?
**A.** 65 nM
